Substrate in data set [1]: COC(=O)c1cccc(O)c1N
Briefly: purified protein. Format: biochemical, Solanum lycopersicum. The settings on record: 200 or 500 uM p-coumaroyl-CoA, 30 C, aminoacylation (amide synthesis).

Substrate in data set [2]: CC(C)(COP(=O)(O)OP(=O)(O)OC[C@H]1O[C@@H](n2cnc3c(N)ncnc32)[C@H](O)[C@@H]1OP(=O)(O)O)[C@@H](O)C(=O)NCCC(=O)NCCSC(=O)CC(=O)O
In words: purified protein. The settings on record: 200 uM p-coumaroyl-CoA, 30 C, 120 nM enzyme.

B1: SlCHS (Solanum lycopersicum) (protein)
chain: MVTVEEYRKAQRAEGPATILAIGTSTPSNCVDQSTYPDYYFRITNSEHKTELKEKFKRMCDKSMIKKRYMHLTEEILKENPNMCAYMAPSLDARQDIVVVEVPKLGKRGTQKAIKEWGQPKSKITHLVFCTTSGVDMPACDYQLAKLLPVRPSVKRLMMYQQGCFAGGTVLRLAKDLAENNKGARVLVVCSEITAVTFRGPSESHLDSLVGQALFGDGAAAIIIGSDPIIGVERPLFELVSAAQTLVPDSEGAIDGHLREVGLTFHLLKDVPGLISKNIEKSLLEAFQPLGISDWNSLFWIAHPGGPAILDQVELKLGLKPEKLRATREVLSNYGNMSSACVLFILDEMRKASTKEGLGTTGEGLEWGVLFGFGPGLTVETVVLHSVAA
Take B1: in “purified protein [1]”, the Michaelis-Menten constant (Km) – broadly, the concentration of substrate that gives half-maximal velocity – is 3060 µM and the kcat (usually the maximal rate divided by the concentration of active sites) came out at 0.00603 s⁻¹. In the data set “purified protein [2]”, the Km came out at 21.34 µM and the kcat is 0.00157 s⁻¹.

(Values after article PMC7608815.)
